Results from PMC3316669.

What was measured:
[1] = biological target: ssTorA-SBP signal peptide (Escherichia coli) (UniProt P33225); assay: SPR; conditions: cited from earlier work
[2] = biological target: TorA signal peptide 10-26 (Escherichia coli) (UniProt P33225); assay: ITC; conditions: cited from earlier work
[3] = biological target: MBP-ssTorA signal peptide (Escherichia coli) (UniProt P33225); assay: ITC; conditions: cited from earlier work
[4] = biological target: TorD with N-terminal His-tag (E. coli) (UniProt P36662); assay: SPR; quantitative, equilibrium response against pre-protein concentration; His-tagged REMP held on a Ni-NTA chip to 500 RU, 20 µl/min, 25°C, reference surface subtracted; Scatchard plot and Langmuir 1:1 fit; 10 mM HEPES, 150 mM NaCl, 50 µM EDTA, 0.005% P20, pH 7.4

Chain of TorD (P36662 whole entry): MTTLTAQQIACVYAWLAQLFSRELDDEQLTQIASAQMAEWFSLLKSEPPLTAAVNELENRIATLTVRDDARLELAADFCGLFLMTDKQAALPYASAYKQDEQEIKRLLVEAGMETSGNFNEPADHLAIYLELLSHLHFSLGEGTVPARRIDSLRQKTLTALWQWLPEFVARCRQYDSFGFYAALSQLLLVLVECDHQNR

Substance | Kd [4] [nM] | other results
TorD (from UniProt P36662) |  | Kd [1]: 3800 nM; Kd [2]: 1700 nM; Kd [3]: 59 nM
ssTorA-GFP (signal sequence of TorA fused to GFP) (domain or fragment) | 330 | stoichiometry N [4]: 1

Second part, led by results:

Kd [4] [nM] | Substance | other results
540 | ssTorA(KK)-GFP (domain or fragment) | 
4900 | ssTorA(KKK)-GFP (domain or fragment) | 
2900 | ssTorA(KR)-GFP (domain or fragment) | 
3600 | ssTorA(RK)-GFP (domain or fragment) | 
